Target: ubiquitin (human, UniProt P0CG47 1-76)
Assay: ITC

- Kd: 81 ± 15 µM
B1: Phe320Ala mutant of the catalytic domain of AMSH (domain or fragment, human, UniProt O95630 219-424, looked up)
chain: SDCHTTVRPAKPPVVDRSLKPGALSNSESIPTIDGLRHVVVPGRLCPQFLQLASANTARGVETCGILCGKLMRNEFTITHVLIPKQSAGSDYCNTENEEELALIQDQQGLITLGWIHTHPTQTAFLSSVDLHTHCSYQMMLPESVAIVCSPKFQETGFFKLTDHGLEEISSCRQKGFHPHSKDPPLFCSCSHVTVVDRAVTITDLR

From paper PMC3972757 (Biochemistry, 2013)
